Measurements from publication PMC10501187.

Biological target: GABARAP (UniProt O95166)
Assay: GST-GABARAP pull-down from cell lysate
Settings: reference: wild type

Substance	binding against the reference (sites S65)	binding against the reference (sites T54)
ORP8 (from UniProt Q9BZF1) S65A	weaker	
ORP8 (from UniProt Q9BZF1) T54A		weaker
